Laboratory results reported in publication PMC9482650, “Quantitative fragmentomics allow affinity mapping of interactomes” (Nature Communications, 2022).

What follows are binders tested against T1, APBA3_1, O96018 (assay: holdup assay). Settings: plain residues with an end cap or a label only (N-terminal biotin on a linker: ttds).
T1 sequence (O96018 389-490, limits assumed, looked up): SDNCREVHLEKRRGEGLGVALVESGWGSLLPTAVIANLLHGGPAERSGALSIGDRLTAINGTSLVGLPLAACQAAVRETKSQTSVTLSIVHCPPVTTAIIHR
Set-up: key: below the threshold = too weak to quantify, mostly under pKd 3.1 to 4
PRVKPQRSKV [PPP1R13L, Q8WUF5] was tested, and the pKd was “below the threshold”. NDPAWDETNL [ARHGEF7, Q14155;Q14155-1] was tested, and the pKd was “below the threshold”.

These binders were tested against T2, DFNB31_1, Q9P202 (assay: holdup assay). Settings: plain residues with an end cap or a label only (N-terminal biotin on a linker: ttds).
T2 sequence (Q9P202 135-233, limits assumed, looked up): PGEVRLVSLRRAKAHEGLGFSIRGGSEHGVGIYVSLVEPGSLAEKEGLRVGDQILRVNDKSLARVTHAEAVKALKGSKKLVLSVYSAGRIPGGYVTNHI
Set-up: key: below the threshold = too weak to quantify, mostly under pKd 3.1 to 4
In the case of PRVKPQRSKV [PPP1R13L, Q8WUF5], the pKd is reported as “below the threshold”. With NDPAWDETNL [ARHGEF7, Q14155;Q14155-1] the pKd was 4.07.

These binders were tested against T3, DFNB31_3, Q9P202 (assay: holdup assay). Settings: plain residues with an end cap or a label only (N-terminal biotin on a linker: ttds).
T3 sequence (Q9P202 811-907, limits assumed, looked up): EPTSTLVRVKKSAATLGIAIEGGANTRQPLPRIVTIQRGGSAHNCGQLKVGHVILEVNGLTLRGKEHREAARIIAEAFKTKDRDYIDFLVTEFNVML
Set-up: key: below the threshold = too weak to quantify, mostly under pKd 3.1 to 4
PRVKPQRSKV [PPP1R13L, Q8WUF5] was tested, and the pKd was “below the threshold”. With NDPAWDETNL [ARHGEF7, Q14155;Q14155-1] the pKd was “below the threshold”.

What follows are binders tested against T4, DLG3_2, Q92796 (assay: holdup assay). Settings: plain residues with an end cap or a label only (N-terminal biotin on a linker: ttds).
T4 sequence (Q92796 221-321, limits assumed, looked up): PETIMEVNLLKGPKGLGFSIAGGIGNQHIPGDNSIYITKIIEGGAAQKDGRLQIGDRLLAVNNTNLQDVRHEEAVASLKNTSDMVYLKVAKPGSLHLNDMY
Set-up: key: below the threshold = too weak to quantify, mostly under pKd 3.1 to 4
Work on PRVKPQRSKV [PPP1R13L, Q8WUF5] yielded a pKd of 3.73. In the case of NDPAWDETNL [ARHGEF7, Q14155;Q14155-1], the pKd is reported as “below the threshold”.

Each binder was assayed against DLG5_1, Q8TDM6 (assay: holdup assay). Settings: plain residues with an end cap or a label only (N-terminal biotin on a linker: ttds).
Chain of DLG5_1, Q8TDM6 (Q8TDM6 617-713): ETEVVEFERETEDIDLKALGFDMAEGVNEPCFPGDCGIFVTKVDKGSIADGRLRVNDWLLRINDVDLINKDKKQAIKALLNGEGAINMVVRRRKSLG
Set-up: key: below the threshold = too weak to quantify, mostly under pKd 3.1 to 4
In the case of PRVKPQRSKV [PPP1R13L, Q8WUF5], the pKd is reported as “below the threshold”. In the case of NDPAWDETNL [ARHGEF7, Q14155;Q14155-1], the pKd is reported as “below the threshold”.

The binders below were run against FRMPD3, Q5JV73 (assay: holdup assay). Settings: plain residues with an end cap or a label only (N-terminal biotin on a linker: ttds).
Chain of FRMPD3, Q5JV73 (Q5JV73 12-100): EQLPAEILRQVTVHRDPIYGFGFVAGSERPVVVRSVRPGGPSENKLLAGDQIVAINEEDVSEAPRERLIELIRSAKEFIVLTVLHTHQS
Set-up: key: below the threshold = too weak to quantify, mostly under pKd 3.1 to 4
PRVKPQRSKV [PPP1R13L, Q8WUF5] was tested, and the pKd was “below the threshold”.

These binders were tested against GORASP2, Q9H8Y8 (assay: holdup assay). Settings: plain residues with an end cap or a label only (N-terminal biotin on a linker: ttds).
Set-up: key: below the threshold = too weak to quantify, mostly under pKd 3.1 to 4
For PRVKPQRSKV [PPP1R13L, Q8WUF5], the pKd was “below the threshold”. NDPAWDETNL [ARHGEF7, Q14155;Q14155-1] was tested, and the pKd was “below the threshold”.

The binders below were run against GRASP, Q7Z6J2 (assay: holdup assay). Settings: plain residues with an end cap or a label only (N-terminal biotin on a linker: ttds).
Chain of GRASP, Q7Z6J2 (Q7Z6J2 96-193): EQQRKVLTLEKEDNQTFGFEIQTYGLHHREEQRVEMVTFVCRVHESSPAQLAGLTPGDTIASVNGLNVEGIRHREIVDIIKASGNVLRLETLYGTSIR
Set-up: key: below the threshold = too weak to quantify, mostly under pKd 3.1 to 4
Work on PRVKPQRSKV [PPP1R13L, Q8WUF5] yielded a pKd of 4.39. In the case of NDPAWDETNL [ARHGEF7, Q14155;Q14155-1], the pKd is reported as “below the threshold”.

The binders below were run against GRID2IP_2, A4D2P6 (assay: holdup assay). Settings: plain residues with an end cap or a label only (N-terminal biotin on a linker: ttds).
Chain of GRID2IP_2, A4D2P6 (A4D2P6 272-370): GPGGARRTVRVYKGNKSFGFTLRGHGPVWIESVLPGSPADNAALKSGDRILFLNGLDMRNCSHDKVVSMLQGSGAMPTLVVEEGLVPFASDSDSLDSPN
Set-up: key: below the threshold = too weak to quantify, mostly under pKd 3.1 to 4
For PRVKPQRSKV [PPP1R13L, Q8WUF5], the pKd was 4.51.

Each binder was assayed against T5, GRIP1_4, Q9Y3R0 (assay: holdup assay). Settings: plain residues with an end cap or a label only (N-terminal biotin on a linker: ttds).
T5 sequence (Q9Y3R0 467-571, limits assumed, looked up): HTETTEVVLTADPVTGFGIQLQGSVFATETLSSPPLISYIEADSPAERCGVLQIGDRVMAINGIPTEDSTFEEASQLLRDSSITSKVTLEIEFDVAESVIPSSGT
Set-up: key: below the threshold = too weak to quantify, mostly under pKd 3.1 to 4
In the case of PRVKPQRSKV [PPP1R13L, Q8WUF5], the pKd is reported as “below the threshold”. For NDPAWDETNL [ARHGEF7, Q14155;Q14155-1], the pKd was “below the threshold”.

These binders were tested against GRIP2_4, Q9C0E4 (assay: holdup assay). Settings: plain residues with an end cap or a label only (N-terminal biotin on a linker: ttds).
Chain of GRIP2_4, Q9C0E4 (Q9C0E4 446-548): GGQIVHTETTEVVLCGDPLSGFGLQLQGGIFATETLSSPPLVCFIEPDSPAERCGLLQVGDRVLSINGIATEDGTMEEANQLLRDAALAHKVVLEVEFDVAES
Set-up: key: below the threshold = too weak to quantify, mostly under pKd 3.1 to 4
In the case of PRVKPQRSKV [PPP1R13L, Q8WUF5], the pKd is reported as “below the threshold”. NDPAWDETNL [ARHGEF7, Q14155;Q14155-1] was tested, and the pKd was “below the threshold”.

These binders were tested against GRIP2_6, Q9C0E4 (assay: holdup assay). Settings: plain residues with an end cap or a label only (N-terminal biotin on a linker: ttds).
Chain of GRIP2_6, Q9C0E4 (Q9C0E4 648-740): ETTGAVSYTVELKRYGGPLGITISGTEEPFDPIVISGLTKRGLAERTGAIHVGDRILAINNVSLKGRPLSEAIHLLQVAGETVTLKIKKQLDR
Set-up: key: below the threshold = too weak to quantify, mostly under pKd 3.1 to 4
PRVKPQRSKV [PPP1R13L, Q8WUF5] was tested, and the pKd was “below the threshold”. In the case of NDPAWDETNL [ARHGEF7, Q14155;Q14155-1], the pKd is reported as “below the threshold”.

What follows are binders tested against T6, HTRA3, P83110 (assay: holdup assay). Settings: plain residues with an end cap or a label only (N-terminal biotin on a linker: ttds).
T6 sequence (P83110 354-453, limits assumed, looked up): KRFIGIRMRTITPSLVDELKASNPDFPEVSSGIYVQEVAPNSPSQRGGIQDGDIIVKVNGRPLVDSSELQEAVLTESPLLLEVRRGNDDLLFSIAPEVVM
Set-up: key: below the threshold = too weak to quantify, mostly under pKd 3.1 to 4
PRVKPQRSKV [PPP1R13L, Q8WUF5] was tested, and the pKd was “below the threshold”. With NDPAWDETNL [ARHGEF7, Q14155;Q14155-1] the pKd was “below the threshold”.

These binders were tested against IL16_3, Q14005 (assay: holdup assay). Settings: plain residues with an end cap or a label only (N-terminal biotin on a linker: ttds).
Chain of IL16_3, Q14005 (Q14005 1107-1207): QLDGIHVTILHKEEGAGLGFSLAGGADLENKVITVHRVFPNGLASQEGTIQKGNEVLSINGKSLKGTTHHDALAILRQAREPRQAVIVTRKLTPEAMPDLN
Set-up: key: below the threshold = too weak to quantify, mostly under pKd 3.1 to 4
PRVKPQRSKV [PPP1R13L, Q8WUF5] was tested, and the pKd was “below the threshold”. With NDPAWDETNL [ARHGEF7, Q14155;Q14155-1] the pKd was “below the threshold”.

These binders were tested against IL16_4, Q14005 (assay: holdup assay). Settings: plain residues with an end cap or a label only (N-terminal biotin on a linker: ttds).
Chain of IL16_4, Q14005 (Q14005 1229-1329): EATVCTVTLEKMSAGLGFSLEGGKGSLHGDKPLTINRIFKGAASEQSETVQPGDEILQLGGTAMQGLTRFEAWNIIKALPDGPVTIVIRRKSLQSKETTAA
Set-up: key: below the threshold = too weak to quantify, mostly under pKd 3.1 to 4
With PRVKPQRSKV [PPP1R13L, Q8WUF5] the pKd was “below the threshold”. NDPAWDETNL [ARHGEF7, Q14155;Q14155-1] was tested, and the pKd was “below the threshold”.

Each binder was assayed against Inadl_9, Q8NI35 (assay: holdup assay). Settings: plain residues with an end cap or a label only (N-terminal biotin on a linker: ttds).
Chain of Inadl_9, Q8NI35 (Q8NI35 1530-1615): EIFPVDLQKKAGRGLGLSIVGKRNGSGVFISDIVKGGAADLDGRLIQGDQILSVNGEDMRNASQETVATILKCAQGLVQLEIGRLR
Set-up: key: below the threshold = too weak to quantify, mostly under pKd 3.1 to 4
For PRVKPQRSKV [PPP1R13L, Q8WUF5], the pKd was “below the threshold”. In the case of NDPAWDETNL [ARHGEF7, Q14155;Q14155-1], the pKd is reported as “below the threshold”.

The binders below were run against LNX1_2, Q8TBB1 (assay: holdup assay). Settings: plain residues with an end cap or a label only (N-terminal biotin on a linker: ttds).
Chain of LNX1_2, Q8TBB1 (Q8TBB1 371-470): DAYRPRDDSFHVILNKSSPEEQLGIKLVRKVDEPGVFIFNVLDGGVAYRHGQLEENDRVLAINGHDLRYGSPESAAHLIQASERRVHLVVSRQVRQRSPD
Set-up: key: below the threshold = too weak to quantify, mostly under pKd 3.1 to 4
With PRVKPQRSKV [PPP1R13L, Q8WUF5] the pKd was “below the threshold”. For NDPAWDETNL [ARHGEF7, Q14155;Q14155-1], the pKd was “below the threshold”.

These binders were tested against MAGI2_2, Q86UL8 (assay: holdup assay). Settings: plain residues with an end cap or a label only (N-terminal biotin on a linker: ttds).
Chain of MAGI2_2, Q86UL8 (Q86UL8 410-522): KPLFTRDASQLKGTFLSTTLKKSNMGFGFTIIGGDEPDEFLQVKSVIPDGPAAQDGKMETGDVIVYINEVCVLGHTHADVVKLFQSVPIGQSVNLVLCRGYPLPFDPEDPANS
Set-up: key: below the threshold = too weak to quantify, mostly under pKd 3.1 to 4
PRVKPQRSKV [PPP1R13L, Q8WUF5] showed a pKd of 3.79. For NDPAWDETNL [ARHGEF7, Q14155;Q14155-1], the pKd was “below the threshold”.

These binders were tested against T7, MPDZ_12, O75970 (assay: holdup assay). Settings: plain residues with an end cap or a label only (N-terminal biotin on a linker: ttds).
T7 sequence (O75970 1857-1958, limits assumed, looked up): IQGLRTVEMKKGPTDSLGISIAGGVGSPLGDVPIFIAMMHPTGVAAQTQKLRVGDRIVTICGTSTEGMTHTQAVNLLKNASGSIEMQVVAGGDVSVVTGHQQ
Set-up: key: below the threshold = too weak to quantify, mostly under pKd 3.1 to 4
PRVKPQRSKV [PPP1R13L, Q8WUF5] was tested, and the pKd was “below the threshold”. For NDPAWDETNL [ARHGEF7, Q14155;Q14155-1], the pKd was “below the threshold”.

Each binder was assayed against T8, MPP2, Q14168 (assay: holdup assay). Settings: plain residues with an end cap or a label only (N-terminal biotin on a linker: ttds).
T8 sequence (Q14168 180-250, limits assumed, looked up): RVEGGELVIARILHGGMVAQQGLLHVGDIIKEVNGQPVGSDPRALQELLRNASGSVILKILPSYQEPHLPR
Set-up: key: below the threshold = too weak to quantify, mostly under pKd 3.1 to 4
PRVKPQRSKV [PPP1R13L, Q8WUF5] was tested, and the pKd was “below the threshold”. In the case of NDPAWDETNL [ARHGEF7, Q14155;Q14155-1], the pKd is reported as “below the threshold”.

These binders were tested against NOS1, P29475 (assay: holdup assay). Settings: plain residues with an end cap or a label only (N-terminal biotin on a linker: ttds).
Chain of NOS1, P29475 (P29475 9-101): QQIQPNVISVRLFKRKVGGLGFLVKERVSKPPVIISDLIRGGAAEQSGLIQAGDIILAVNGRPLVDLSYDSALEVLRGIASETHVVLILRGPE
Set-up: key: below the threshold = too weak to quantify, mostly under pKd 3.1 to 4
With PRVKPQRSKV [PPP1R13L, Q8WUF5] the pKd was “below the threshold”. NDPAWDETNL [ARHGEF7, Q14155;Q14155-1] was tested, and the pKd was “below the threshold”.

What follows are binders tested against T9, PDZRN3_1, Q9UPQ7 (assay: holdup assay). Settings: plain residues with an end cap or a label only (N-terminal biotin on a linker: ttds).
T9 sequence (Q9UPQ7 244-349, limits assumed, looked up): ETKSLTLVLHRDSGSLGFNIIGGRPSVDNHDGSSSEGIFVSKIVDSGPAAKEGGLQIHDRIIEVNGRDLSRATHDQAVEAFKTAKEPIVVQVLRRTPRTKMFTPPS
Set-up: key: below the threshold = too weak to quantify, mostly under pKd 3.1 to 4
In the case of PRVKPQRSKV [PPP1R13L, Q8WUF5], the pKd is reported as “below the threshold”. With NDPAWDETNL [ARHGEF7, Q14155;Q14155-1] the pKd was 3.92.

The binders below were run against PICK1, Q9NRD5 (assay: holdup assay). Settings: plain residues with an end cap or a label only (N-terminal biotin on a linker: ttds).
Chain of PICK1, Q9NRD5 (Q9NRD5 17-115): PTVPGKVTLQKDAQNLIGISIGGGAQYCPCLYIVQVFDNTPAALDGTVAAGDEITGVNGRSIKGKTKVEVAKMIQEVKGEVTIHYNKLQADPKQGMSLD
Set-up: key: below the threshold = too weak to quantify, mostly under pKd 3.1 to 4
With PRVKPQRSKV [PPP1R13L, Q8WUF5] the pKd was “below the threshold”. In the case of NDPAWDETNL [ARHGEF7, Q14155;Q14155-1], the pKd is reported as “below the threshold”.

The binders below were run against T10, RADIL, Q96JH8 (assay: holdup assay). Settings: plain residues with an end cap or a label only (N-terminal biotin on a linker: ttds).
T10 sequence (Q96JH8 971-1071, limits assumed, looked up): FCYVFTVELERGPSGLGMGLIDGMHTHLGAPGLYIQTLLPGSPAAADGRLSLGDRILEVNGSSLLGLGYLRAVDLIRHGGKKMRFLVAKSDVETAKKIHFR
Set-up: key: below the threshold = too weak to quantify, mostly under pKd 3.1 to 4
With PRVKPQRSKV [PPP1R13L, Q8WUF5] the pKd was “below the threshold”. With NDPAWDETNL [ARHGEF7, Q14155;Q14155-1] the pKd was “below the threshold”.

Each binder was assayed against T11, TIAM2, Q8IVF5 (assay: holdup assay). Settings: plain residues with an end cap or a label only (N-terminal biotin on a linker: ttds).
T11 sequence (Q8IVF5 885-986, limits assumed, looked up): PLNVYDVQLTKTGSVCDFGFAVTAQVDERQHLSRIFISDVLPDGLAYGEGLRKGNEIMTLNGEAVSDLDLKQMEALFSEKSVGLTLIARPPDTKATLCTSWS
Set-up: key: below the threshold = too weak to quantify, mostly under pKd 3.1 to 4
With PRVKPQRSKV [PPP1R13L, Q8WUF5] the pKd was “below the threshold”. NDPAWDETNL [ARHGEF7, Q14155;Q14155-1] was tested, and the pKd was “below the threshold”.

The binders below were run against TJP1_3, Q07157 (assay: holdup assay). Settings: plain residues with an end cap or a label only (N-terminal biotin on a linker: ttds).
Chain of TJP1_3, Q07157 (Q07157 416-512): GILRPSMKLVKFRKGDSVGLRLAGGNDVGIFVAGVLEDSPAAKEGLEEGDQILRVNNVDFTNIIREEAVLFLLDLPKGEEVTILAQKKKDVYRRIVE
Set-up: key: below the threshold = too weak to quantify, mostly under pKd 3.1 to 4
In the case of PRVKPQRSKV [PPP1R13L, Q8WUF5], the pKd is reported as “below the threshold”. NDPAWDETNL [ARHGEF7, Q14155;Q14155-1] was tested, and the pKd was “below the threshold”.
